Assay results as given in patent publication US20180188270A1, “DIAGNOSTIC TEST FOR ALZHEIMER'S DISEASE BASED ON IDENTIFICATION OF A PROTEOLYTIC PATHWAY” (Health Research, Inc., priority 2015, published 2018).

Key:
FXII = assay: Binding to coagulation factor FXII (IP and IB); design: species or system human; details: 40 nM (hAβ1-42 200 nM) with FXII in PBS, 2 h
Procedure: Binding reactions were carried out in PBS in a total volume of 100 μl for 2 h at 37° C. To assess binding of hPEPD to HMWK, PK, FXI, FXII or a FXII mutant, hPEPD at 40 nM was incubated with a potential binding partner at 0.5 μM. All FXII mutants are His tagged, while FXII is either 6XHis-tagged (generated in our own laboratory) or not His-tagged (purchased commercially), depending on the experiment. To compare hPEPD and its mutants for binding to FXII, hPEPD or a mutant (40 nM) was incubated with FXII at 0.5 μM. Likewise, to assess binding of mSRC to FXII and its mutants, mSRC (40 nM) was incubated with FXII or a mutant at 0.5 μM. At the end of the incubation, 300 μl PBS containing a specific primary antibody was added to the incubation solution, which was further incubated at 4° C. overnight, followed by IP by protein G-agarose, and the precipitates were analyzed by IB. […] The precipitates were re-dissolved in 30 μl of 2% SDS, which were analyzed along with the supernatants by IB.

FIIa = target: T1, FIIa (Homo sapiens, UniProt P00734); assay: hPEPD stability on incubation with FIIa; format: biochemical; details: hPEPD 90 nM, FIIa 100 nM
T1 construct: purchased Haematologic Technologies HCT-0020
Procedure: (§1) Measurement of in vitro degradation of hPEPD, mSRC and hAβ1-42. To determine whether a blood coagulation factor degrades hPEPD, hPEPD at 90 nM or lower concentrations (10 or 40 nM) was incubated with solvent, 100 nM FIIa, 100 nM FXa, 10 nM FVIIa with or without 10 nM TF, or 10 nM FVII with or without 10 nM TF and/or 100 nM FIIa in PBS in a total volume of 100 μl containing 5 mM CaCl2 for desired times at RT. […] To compare the hPEPD-degrading activities of different plasma samples, 9.2 pmol of hPEPD was incubated with 100 μl of plasma from WT mice or FVII^tTA/tTA mice at RT, with or without FIIa or FXa (10 pmol), and to maximize detection of any activity, all incubations lasted for 24 h. […] To measure remaining hPEPD, the incubated samples were cleared of potential fibrin clots by centrifugation and then analyzed by SDS-PAGE and silver staining (using the LC 6070 kit from Invitrogen), IB or measurement of hPEPD enzymatic activity. hPEPD enzymatic activity was measured using glycyl-proline as a substrate (as described in Zbucka et al., Folia Histochem Cytobiol 2007; 45 Suppl 1: S181-185). The precipitates from each incubated sample were washed with PBS twice and then resuspended in 2.5% SDS (20 μper sample); each solution was mixed with 10 μl loading dye and analyzed for hPEPD by IB, using pure hPEPD as a standard and factor FXIIIa as a binding control, respectively.

[1] = tested on: plasma coagulation factors FXII, PK, HMWK, FXI, FIX, FX, FII, FI and FVII; assay: Changes in plasma coagulation factors in mice by IB (FI by ELISA); format: in vivo, mouse; details: 6 h after i.p. treatment
Procedure: Animal studies. […] Male mice at 7-8 weeks of age were used, including wild type (WT) mice (C57BL/6), and mice deficient in FXII (C57BL/6-FXII^−/−) or FVII (C57BL/6-FVII^tTA/tTA). WT C57BL/6 mice were purchased from Taconic. C57BL/6-FXII^−/− mice and C57BL/6-FVII^tTA/tTA mice were bred in our own facility and genotyped. […] CCl4 was dissolved in corn oil, whereas all other substances were dissolved in PBS. The vehicle or the test substance was given to mice in 0.1 ml volume per 20 g body weight. Blood was collected from the mice at specific times by cardiac puncture at the time of sacrifice by carbon dioxide, and heart, liver and kidney were also collected from some of the mice. Blood was collected into K3 EDTA-containing tubes (Multivette 600 from Sarstedt), unless specified otherwise. All blood samples were promptly centrifuged to obtain plasma samples.
The plates were washed three times with phosphate buffered saline tween-20 (PBST) and the coated wells were blocked by incubation with 200 μl/well of 1% BSA in PBS for at least 2 h at RT. […] The plates were washed again with PBST, and each well was incubated with a goat anti-rabbit IgG-HRP conjugate (100 μl) for 1 h at RT. After yet another round of wash with PBST, each well was incubated with 100 μl of HRP substrate 3,3′,5,5′-tetramethylbenzedine (Cell Signaling, 7004). Upon adequate color development, 100 μl of stop solution (Cell Signaling, 7002) was added to each well, and absorbance at 450 nm was promptly recorded by a microtiter plate reader. Plasma FI concentration was determined using an assay kit (400-374-130050) from GenWay Biotech, following the manufacturer's instruction.
IB. Tissue samples were mixed with RIPA buffer (25 mM Tris-HCl, pH 7.6, 150 mM NaCl, 1% Nonidet P-40, 1% sodium deoxycholate, 0.1% SDS), supplemented with 2 mM phenylmethanesulfonyl fluoride, a proteinase inhibitor mix (Roche Applied Science) and phosphatase inhibitor Cocktail 2 (Sigma-Aldrich). Tissue samples were stroked in a Dounce homogenizer, and the homogenates were cleared by centrifugation at 12,000×g for 15 min at 4° C. Protein concentrations in all samples were measured by the BCA assay kit. Plasma samples were used without further processing (20 μl per sample). Each sample was mixed with 4× loading dye, heated for 5 min at 95° C. and then resolved by SDS-PAGE (8-12.5%). […] The proteins were transferred to polyvinylidene fluoride membrane, probed with specific antibodies and detected using the ECL Plus Kit (Amersham) or the SuperSignal West Pico Kit (Thermo Scientific).

plasma mSRC = assay: Plasma SRC concentration in mice by ELISA; format: in vivo, mouse; details: FXII−/− mice, CCl4 0.5 g/kg or hPEPD 4 mg/kg i.p., 24 h
Procedure: Animal studies. All animal studies were performed in accordance with protocols approved by the Institutional Animal Care and Use Committee at Roswell Park Cancer Institute. Male mice at 7-8 weeks of age were used, including wild type (WT) mice (C57BL/6), and mice deficient in FXII (C57BL/6-FXII^−/−) or FVII (C57BL/6-FVII^tTA/tTA). WT C57BL/6 mice were purchased from Taconic. C57BL/6-FXII^−/− mice and C57BL/6-FVII^tTA/tTA mice were bred in our own facility and genotyped. The breeders were kindly provided by Dr. Francis J. Castellino at University of Notre Dame. […] CCl4 was dissolved in corn oil, whereas all other substances were dissolved in PBS. The vehicle or the test substance was given to mice in 0.1 ml volume per 20 g body weight. Blood was collected from the mice at specific times by cardiac puncture at the time of sacrifice by carbon dioxide, and heart, liver and kidney were also collected from some of the mice. […]
Measurement of plasma levels of PEPD, SRC, Aβ1-42 and FI. […] Upon adequate color development, 100 μl of stop solution (Cell Signaling, 7002) was added to each well, and absorbance at 450 nm was promptly recorded by a microtiter plate reader. Plasma FI concentration was determined using an assay kit (400-374-130050) from GenWay Biotech, following the manufacturer's instruction.

FXa = target: T2, FXa (Homo sapiens, UniProt P00742); assay: hPEPD stability on incubation with FXa; format: biochemical; details: hPEPD 90 nM, FXa 100 nM
T2 construct: purchased Haematologic Technologies HCXA-0060
T2 sequence (P00742 41-179 limits assumed): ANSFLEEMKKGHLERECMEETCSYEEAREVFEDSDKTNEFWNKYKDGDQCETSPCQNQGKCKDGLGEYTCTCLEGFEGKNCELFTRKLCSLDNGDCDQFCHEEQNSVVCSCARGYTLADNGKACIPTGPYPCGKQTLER
T2 sequence (P00742 235-488 limits assumed): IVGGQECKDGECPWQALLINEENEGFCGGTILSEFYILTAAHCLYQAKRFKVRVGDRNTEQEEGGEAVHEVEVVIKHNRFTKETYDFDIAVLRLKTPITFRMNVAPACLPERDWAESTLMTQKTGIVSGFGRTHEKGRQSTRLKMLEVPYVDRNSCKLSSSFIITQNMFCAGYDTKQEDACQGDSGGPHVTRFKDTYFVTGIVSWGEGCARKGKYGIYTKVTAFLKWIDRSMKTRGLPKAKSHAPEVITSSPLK
Procedure: as §1

B1: hPEPD: recombinant human prolidase (PEPD), 6xHis tagged to the carboxy terminus (protein, UniProt P12955 2-493, looked up)
Xaa-Pro dipeptidase: AAATGPSFWLGNETLKVPLALFALNRQRLCERLRKNPAVQAGSIVVLQGGEETQRYCTDTGVLFRQESFFHWAFGVTEPGCYGVIDVDTGKSTLFVPRLPASHATWMGKIHSKEHFKEKYAVDDVQYVDEIASVLTSQKPSVLLTLRGVNTDSGSVCREASFDGISKFEVNNTILHPEIVECRVFKTDMELEVLRYTNKISSEAHREVMKAVKVGMKEYELESLFEHYCYSRGGMRHSSYTCICGSGENSAVLHYGHAGAPNDRTIQNGDMCLFDMGGEYYCFASDITCSFPANGKFTADQKAVYEAVLRSSRAVMGAMKPGVWWPDMHRLADRIHLEELAHMGILSGSVDAMVQAHLGAVFMPHGLGHFLGIDVHDVGGYPEGVERIDEPGLRSLRTARHLQPGMVLTVEPGIYFIDHLLDEALADPARASFLNREVLQRFRGFGGVRIEEDVVVTDSGIELLTCVPRTVEEIEACMAGCDKAFTPFSGPK
modifications: C-terminal 6xHis tag
notes: recombinant human prolidase (PEPD), 6xHis tagged to the carboxy terminus
binding to FXII (FXII): binds only to FXII | effect of FIIa on hPEPD stability (FIIa): had no effect on hPEPD stability | activation/cleavage of plasma coagulation factors ([1]; FXII−/− mice): no activation of HMWK, FXI, PK and FIX, but slight activation of FX, FII and FVII | activation/cleavage of plasma coagulation factors ([1]; WT mice): caused cleavage or activation of many coagulation factors | average plasma level of mSRC, increase (plasma mSRC): remained unchanged | effect of FXa on hPEPD stability (FXa): had no effect on hPEPD stability
